Measurements as given in patent US12194082B2, “Compositions and methods for treatment of homocystinuria” (THE REGENTS OF THE UNIVERSITY OF COLORADO, priority 2016, dated 2025).
Where “and” joins values, the source holds several entries; their conditions need not be identical. Identical values can stand only once.

Columns and labels:
[1] = tested on: tHcy, cystathionine; assay: Betaine, PEGC15S and combination treatment: transsulfuration metabolites; type: in vivo, HO mice
Experimental: (§1) Plasma metabolites homocysteine, cystathionine and cysteine were determined by stable-isotope-dilution liquid chromatography mass spectrometry as previously described in (Allen et al., 1993, Metabolism, 42: 1448-1460). Measurements of total non-protein bound homocysteine and other aminothiols as well as of amino acids in tissue were performed as described in (Maclean et al., 2010b. Mol. Genet. Metab. 101, 153-162). Metabolites were determined by stable-isotope-dilution liquid chromatography mass spectrometry.
The betaine and betaine+PEGC15S groups were treated with 2% betaine in the drinking water throughout the 18 days of the experiment, and the latter group was injected with 7.5 mg/kg PEGC15S on days 14 and 15. The PEGC15S single treatment group was maintained on regular water and injected on days 14 and 15 as well. […] The betaine single treatment group maintained these levels of tHcy to day 18. […] Thus, the combination of PEGC15S with betaine allows for maintaining lower tHcy levels for an extended period of time.

[2] = Pharmacokinetics of htCBS after a single dose (plasma CBS activity); type: in vivo, C57BL/6J mice; conditions: for observed peak plasma level: first 4 hours
Experimental: The pharmacokinetic properties of a pharmacologically active substance that is administered to circulation is greatly affected by natural mechanisms of ADME. Rapid clearance of the injected molecule may greatly impact treatment efficacy and thus longer circulating half-lives are desired, which may translate into less frequent administrations or smaller doses that in turn minimize the side effects. To determine the pharmacokinetics of htCBS in plasma circulation, a single dose of 5 mg/kg was injected via subcutaneous (SC), intravenous (IV) or intraperitoneal (IP) routes to C57BL/6J mice.

[3] = htCBS activity during in vitro incubation in mouse plasma at 37° C.; type: in vitro ADME, wild type or HO mice
Experimental: The rapid decline in htCBS activity in vivo may be attributed to a facilitated clearance from circulation and may also be attributed to the loss of enzymatic activity of htCBS once introduced to the environment in circulation. To test the latter, htCBS was incubated in vitro in mouse plasma of wild type or HO mice at 37° C. for up to 96 hours, with activity measured every 24 hours. […] A modest 25% loss of activity was recorded after 96 hours of incubation.

[4] = CBS enzyme activity assay, specific activity of pure enzyme; type: biochemical; conditions: PEGylated vs non-PEGylated htCBS
Experimental: CBS activity was determined by a radioisotope assay with C^14-labeled serine as a substrate. Ten μl (total 490 ng) of pure htCBS in dilution buffer (0.1 M Tris-HCl pH=8.6, 1 mM DTT, 10 μM PLP, 0.5 mg/ml BSA) or 10 μl of plasma were added to 85 μl of reaction mixture containing 0.1 M Tris-HCl pH=8.6, 10 mM L-serine, 0.5 mM PLP, 0.5 mg/ml BSA and 0.3 μCi (for pure enzyme) or 0.45 μCi (for plasma) of L-[C^14(U)]-Serine. Samples were incubated for 5 min at 37° C. and reaction was initiated by addition of 5 μl of 0.2 M Hcy (10 mM final concentration). Following 30 min of incubation at 37° C., a 20 μl aliquot of the assay mixture was applied onto a grade 3 CHR Whatman (NJ, USA) paper. Assay initiation and sampling of the resulting mixture were staggered so that each reaction time was 30 minutes. Descending paper chromatography was used to isolate the radioactive product (Cth) from a labeled substrate (Ser). The C^14-cystathionine formed in the reaction was separated from C^14-serine by an overnight descending paper chromatography in 2-propanol/formic acid/H2O (75:5.7:18.9 v/v). Radioactivity in the area of the marker cystathionine (detected by staining the marker lane with ninhydrin) was determined by cutting the chromatogram into strips that were submerged in 5 ml of Opti-fluor scintillation cocktail (PerkinElmer, MA, USA) and counted in a Beckman LS-3801 scintillation counter. An enzyme-free sample was used as a blank to monitor the background radioactivity that was then subtracted from each sample. For pure enzyme, specific activity values are expressed as enzyme units (the amount of enzyme that produces 1 μmol of cystathionine/hour) per mg of CBS, and for plasma samples as units per μl plasma.

[5] = tested on: homocysteine, cystathionine and cysteine; assay: Repeated administration of htCBS or PEGhtCBS: plasma and tissue metabolites; type: in vivo, HO mice; conditions: 5 mg/kg, 5 consecutive days on weeks 1 and 3
Experimental: as §1
This lack of metabolic modulation by non-PEGylated htCBS further confirms the necessity to modify htCBS by covalent attachment of polyethylene glycol molecules.
The long term effect of PEGhtCBS administration was monitored using HO mice. The PEGhtCBS enzyme was administered to 8 HO mice at a dose of 7.5 mg/kg, twice a week (Monday and Thursday) for the first two weeks, and then three times a week (Monday, Wednesday and Friday) for 6 weeks. Blood samples were collected 24 hours (Tuesday) and 72 hours (Monday) post injection (FIG. 4A-4C). […] Cystathionine and cysteine levels were positively influenced as well. […] In addition to analysis of plasma metabolites levels, liver, kidney and brain tissue samples from the injected mice were analyzed as well to determine the levels of non-protein bound homocysteine (free and disulfide-linked forms).

Compound: C[N+](C)(C)CC(=O)O [betaine, N,N,N-trimethylglycine]
- decrease in tHcy ([1]; 14 days of 2% betaine in drinking water): 29% and 32%
- cystathionine change ([1]; throughout the 18 days): did not result in an increase

Compound: htCBS: truncated recombinant human CBS (SEQ ID NO: 3) where the C-terminal regulatory region has been removed
- AUC(0-t) (obs area) ([2]; 5 mg/kg IP): 932.4 mU-hr/μL
- Bioavailability ([2]; 5 mg/kg IP): 92%
- E Half-life ([2]; 5 mg/kg IP): 4.3 h
- MRT (area) ([2]; 5 mg/kg IP): 7.9 h
- cmax (obs) ([2]; 5 mg/kg IP): 75.9 Mu/μL
- observed peak plasma level ([2]; 5 mg/kg IP): ≤ 76 mU/μL
- AUC(0-t) (obs area) ([2]; 5 mg/kg IV): 1011 mU-hr/μL
- E Half-life ([2]; 5 mg/kg IV): 2.7 h
- MRT (area) ([2]; 5 mg/kg IV): 4.9 h
- observed peak plasma level ([2]; 5 mg/kg IV): up to 123 mU/μL
- AUC(0-t) (obs area) ([2]; 5 mg/kg SC): 500.9 mU-hr/μL
- Bioavailability ([2]; 5 mg/kg SC): 50%
- E Half-life ([2]; 5 mg/kg SC): 6.1 h
- MRT (area) ([2]; 5 mg/kg SC): 9.5 h
- cmax (obs) ([2]; 5 mg/kg SC): 34.5 Mu/μL
- loss of activity in mouse plasma ([3]; after 96 hours): 25%
- loss of activity in mouse plasma ([3]; up to 72 hours): no significant loss of activity
- Specific Activity [4]: 1193
- serum homocysteine levels [5]: no change
